Results on eight molecules are retold here after US20240294595A1 (ARIZONA BOARD OF REGENTS ON BEHALF OF THE UNIVERSITY OF …, published 2024).

One assay concerns the target T1, VPAC2.
T1 sequence (P41587 whole entry, species assumed, looked up): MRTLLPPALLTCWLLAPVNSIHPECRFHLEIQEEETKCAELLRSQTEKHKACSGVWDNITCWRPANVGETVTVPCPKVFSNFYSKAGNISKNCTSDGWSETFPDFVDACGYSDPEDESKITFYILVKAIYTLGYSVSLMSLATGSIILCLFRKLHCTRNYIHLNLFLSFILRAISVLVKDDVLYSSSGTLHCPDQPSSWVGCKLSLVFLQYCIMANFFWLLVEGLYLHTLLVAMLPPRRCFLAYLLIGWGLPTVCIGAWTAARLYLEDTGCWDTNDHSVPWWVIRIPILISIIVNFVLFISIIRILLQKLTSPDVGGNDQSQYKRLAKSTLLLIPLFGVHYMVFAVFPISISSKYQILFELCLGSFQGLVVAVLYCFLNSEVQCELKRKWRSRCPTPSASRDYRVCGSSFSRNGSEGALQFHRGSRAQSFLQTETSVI
The assay is described as follows: cell-based or functional assay.

The target of another assay is T2, VPAC1.
T2 sequence (P32241 whole entry, species assumed, looked up): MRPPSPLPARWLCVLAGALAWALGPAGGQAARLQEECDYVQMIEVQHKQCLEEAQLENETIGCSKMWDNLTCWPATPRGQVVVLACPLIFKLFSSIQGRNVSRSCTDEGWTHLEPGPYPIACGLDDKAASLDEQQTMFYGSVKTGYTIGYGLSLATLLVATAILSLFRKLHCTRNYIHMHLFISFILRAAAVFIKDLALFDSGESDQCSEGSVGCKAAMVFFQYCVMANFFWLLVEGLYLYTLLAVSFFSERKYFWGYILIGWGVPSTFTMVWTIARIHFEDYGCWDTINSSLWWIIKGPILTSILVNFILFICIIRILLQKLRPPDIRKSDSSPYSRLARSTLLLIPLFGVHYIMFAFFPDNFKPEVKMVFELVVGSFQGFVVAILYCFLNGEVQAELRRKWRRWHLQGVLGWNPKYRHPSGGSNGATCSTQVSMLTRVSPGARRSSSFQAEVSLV
Nature of the assay: cell-based or functional assay.

Where no end group is shown, it is not given here. [ ]: non-standard residue; d: D form. The star is where a group is joined. βGlc = OC[C@H]1O[C@@H](*)[C@H](O)[C@@H](O)[C@@H]1O; Nle = CCCC[C@H](N)C(=O)O

B1: HsDGIFADSYSRYRKQÑAVKKYLAAVL-Ser(Glc) (peptide)
peptide: HSDGIFADSYSRYRKQXAVKKYLAAVLS
modifications: D-Serine at 2 (s); L-Nor-Leucine at 17 (Ñ, written X in letters); Ser 28 = L-Ser(β-D-Glc)
B1: in the assay with VPAC2, the “EC50 (agonist)” value is above 2500 nM and the “EMax (agonist)” value is -42%. In addition, in the assay with VPAC1, the “EC50 (agonist)” value stood at 78.8 nM and the “EMax (agonist)” value is 93%.

B2: HSDGIFTDSYSRYRKQLAVKKYLAAVL-Ser(Mel) (peptide)
peptide: HSDGIFTDSYSRYRKQLAVKKYLAAVLS(melibiose)-NH2
Consider B2, for which, in the assay with VPAC2, the “EC50 (agonist)” value stood at 9.4 nM and the “EMax (agonist)” value was 86%. In addition, in the assay with VPAC1, the “EC50 (agonist)” value amounted to 0.55 nM and the “EMax (agonist)” value is 102%.

B3: HsDGIFTDSYSRYRKQÑAVKKYLAAV-Ser(Glc) (peptide)
peptide: HSDGIFTDSYSRYRKQXAVKKYLAAVS
modifications: D-Serine at 2 (s); L-Nor-Leucine at 17 (Ñ, written X in letters); Ser 27 = L-Ser(β-D-Glc)
On to B3, for which, in the assay with VPAC2, the “EC50 (agonist)” value amounted to 654 nM and the “EMax (agonist)” value was 107%. Further, in the assay with VPAC1, the “EC50 (agonist)” value was determined as 4.8 nM and the “EMax (agonist)” value came to 90%.

B4: HsDGIFADSYSRYRKQÑAVKKYLAAV-Ser(Glc) (peptide)
peptide: HSDGIFADSYSRYRKQXAVKKYLAAVS
modifications: D-Serine at 2 (s); L-Nor-Leucine at 17 (Ñ, written X in letters); Ser 27 = L-Ser(β-D-Glc)
Consider B4, for which, in the assay with VPAC1, the “EC50 (agonist)” value was found to be 1370 nM and the “EMax (agonist)” value worked out at 85%.

B5: HsDGIFADSYSRYRKQÑAVKKYLAAV-Ser(Glc)-L (peptide)
peptide: H[dS]DGIFADSYSRYRKQ[Nle]AVKKYLAAVS(βGlc)L-NH2
modifications: ends and bridges not checked
Turning to B5, in the assay with VPAC1, the “EC50 (agonist)” value turned out to be 1620 nM and the “EMax (agonist)” value came out at 78%.

B6: HsDGIFTDSYSRYRKQÑAVKKYLAAVL-Ser(Glc) (peptide)
peptide: HSDGIFTDSYSRYRKQXAVKKYLAAVLS
modifications: D-Serine at 2 (s); L-Nor-Leucine at 17 (Ñ, written X in letters); Ser 28 = L-Ser(β-D-Glc)
Turning to B6, in the assay with VPAC2, the “EC50 (agonist)” value worked out at 241 nM and the “EMax (agonist)” value was found to be 104%. In addition, in the assay with VPAC1, the “EC50 (agonist)” value came to 1.3 nM and the “EMax (agonist)” value stood at 90%.

B7: HsDGIFTDSYSRYRKQÑAVKKYLAAL-Ser(Glc)-L (peptide)
peptide: H[dS]DGIFTDSYSRYRKQ[Nle]AVKKYLAALS(βGlc)L-NH2
modifications: ends and bridges not checked
On to B7, for which the “EC50 (agonist)” value was above 2500 nM with VPAC2 and 5.9 nM in the assay with VPAC1. The figures for the “EMax (agonist)” value with VPAC2 and with VPAC1 were -95% and 93%, respectively.

B8: PACAP1-27 (peptide)
peptide: HSDGIFTDSYSRYRKQMAVKKYLAAVL
modifications: ends and bridges not checked
With B8, the “EMax (agonist)” value with VPAC1 came to 100%.
